According to US20230302124:

Biological target: T1, simplified alpha-carboxysome shell of CsoS1A and CsoS4A-SII
T1 chain 1: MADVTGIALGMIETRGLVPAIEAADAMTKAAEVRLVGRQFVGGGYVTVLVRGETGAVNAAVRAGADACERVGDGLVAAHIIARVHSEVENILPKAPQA
T1 chain 2: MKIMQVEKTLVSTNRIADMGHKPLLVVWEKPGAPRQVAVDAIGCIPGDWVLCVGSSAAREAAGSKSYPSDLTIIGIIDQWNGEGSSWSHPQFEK

B1: His6-APEX2-S2CP(30) (protein)
chain: HHHHHHMGSSHHHHHHSSGMGKSYPTVSADYQDAVEKAKKKLRGFIAEKRCAPLMLRLAFHSAGTFDKGTKTGGPFGTIKHPAELAHSANNGLDIAVRLLEPLKAEFPILSYADFYQLAGVVAVEVTGGPKVPFHPGREDKPEPPPEGRLPDPTKGSDHLRDVFGKAMGLTDQDIVALSGGHTIGAAHKERSGFEGPWTSNPLIFDNSYFTELLSGEKEGLLQLPSDKALLSDPVFRPLVDKYAADEDAFFADYAEAHQKLSELGFADAGSSKPEKPGSKITGSSGNDTQGSLITYSGGARG
- Average enzyme copy number per shell (T = 3) (copies per shell): 11
- Average enzyme copy number per shell (T = 4) (copies per shell): 14.6
